According to US8604172B2, “Humanized antibody compositions and methods for binding lysophosphatidic acid” (Lpath, Inc., priority 2009, dated 2013):
Marks after values point to notes of the source that are not given here.

Experiments:
[1] = Direct binding ELISA of anti-LPA mAbs to 18:1 LPA
Method: The binding of 6 anti-LPA mAbs (B3, B7, B58, A63, B3A6, D22) to 12:0 and 18:1 LPA (0.1 uM) was measured by ELISA. EC50 values were calculated from titration curves using 6 increasing concentrations of purified mAbs (0 to 0.4 ug/ml). EC50 represents the effective antibody concentration with 50% of the maximum binding. Max denotes the maximal binding (expressed as OD450).

[2] = Competition ELISA (18:1 LPA coat), competitor 14:0 LPA; details: maximum inhibition (% of binding in the absence of inhibitor)
Method: Many isoforms of LPA have been identified to be biologically active and it is preferable that the mAb recognize all of them to some extent to be of therapeutic relevance. The specificity of the anti-LPA mAbs was evaluated utilizing a competition assay in which the competitor lipid was added to the antibody-immobilized lipid mixture.
Competition ELISA assays were performed with the anti-LPA mAbs to assess their specificity. 18:1 LPA was captured on ELISA plates. Each competitor lipid (up to 10 uM) was serially diluted in BSA (1 mg/ml)-PBS and then incubated with the mAbs (3 nM). Mixtures were then transferred to LPA coated wells and the amount of bound antibody was measured with a secondary antibody. Data are normalized to maximum signal (A450) and are expressed as percent inhibition. Assays were performed in triplicate. IC50: Half maximum inhibition concentration; MI: Maximum inhibition (% of binding in the absence of inhibitor); - - -: not estimated because of weak inhibition. A high inhibition result indicates recognition of the competitor lipid by the antibody.

[3] = Competition ELISA specificity, competitor S1P; format: binding; details: maximum inhibition, n = 3
Method: The specificity of the anti-LPA mAbs was assessed for their binding to LPA related biolipids such as distearoyl-phosphatidic acid, lysophosphatidylcholine, S1P, ceramide and ceramide-1-phosphate.

[4] = BiaCore surface plasmon resonance and direct binding ELISA of LT3000
Source text: (§1) The murine antibody is a full-length IgG1k isotype antibody composed of two identical light chains and two identical heavy chains with a total molecular weight of 155.5 kDa.

[5] = Specificity of LT3000 against other lipids and proteins; format: binding; details: over 100 lipids and proteins incl. over 20 bioactive lipids
Source text: as §1

SKOV3 cell migration = assay: SKOV3 migration assay; format: cell-based, human; details: Lpathomab 150 μg/mL; 1 μM 18:1 LPA; n = 3
SKOV3 cells = assay: Taxol-induced apoptosis / caspase activity in SKOV3 cells; format: cell-based, human
Method: The ability of LPA to protect ovarian tumor cells against apoptosis when exposed to clinically-relevant levels of the chemotherapeutic agent, paclitaxel (Taxol) was investigated. […] LPA protected SKOV3 cells from Taxol-induced apoptosis. Apoptosis was assayed by measurement of the caspase activity as recommended by the manufacturer (Promega). As anticipated, LPA protected most of the cancer cell lines tested from taxol-induced cell death. […] Moreover, the anti-LPA antibody was able to remove the protection provided by serum. Serum is estimated to contain about 5-20 uM LPA. […] Taxol-induced caspase activation was enhanced by the addition of LT3000 to the culture medium.

[6] = system: microblood vessel density in matrigel plugs; assay: Matrigel plug assay (VEGF/bFGF), CD31 microvessel density; format: in vivo, C57BL/6 mice; details: for Percent Inhibition: vs control
Method: Female C57BL/6 mice around 8 to 10-weeks old and Matrigel Matrix High Concentration purchased from BD BioSciences (Franklin Lakes, N.J. (from BD) mixed with 50 ng/ml VEGF and 50 ng/ml bFGF, heparin 3 ng/ml as angiogenic stimuli were used for this study. There were five groups of mice, 10 Matrigel plugs were inoculated into five mice for each group on Day 0. One mouse group served as a control; four others receive drug treatment in four different doses by ip injection every other day. All treatments start at Day-1 and finish at Day 8.
Thirty C57bl/6 mice were implanted with Matrigel plugs in order to obtain 25 healthy mice with two well-shaped Matrigel plugs per mouse. On Day 0, 500 ul Matrigel at […] was subcutaneously injected to each side of the mouse, injection area was shaved. To increase the contact area of injected Matrigel into subcutaneous tissues and form a round shape plug, a wide subcutaneous pocket was formed by swaying the needlepoint right and left after a routine subcutaneous insertion. The injection was done rapidly with an appropriate size needle (21G-25G) to ensure the entire content was delivered in one plug. The injected Matrigel rapidly formed a single solid gel plug.
Animals were treated with 8 or 2 mg/kg of antibody or saline beginning 1 day prior to the implantation of Matrigel plugs or with the vehicle. Treatments were administered ip, on a q2d schedule.
Plugs from each group were collected at Day 12. The mice were euthanized and mouse skin was pulled back to expose the plug. The plugs was dissected out and fixed for histological analysis. Sections of 5 μm from paraffin-embedded plugs were stained with anti-CD-31 antibodies. Blood vessel density in a cross sectional area of each Matrigel plugs were analyzed. For each treatment group, at least six or more Matrigel plugs were quantitatively analyzed to assess any statistical significant difference of microvessel density between groups.

[7] = Pharmacokinetics of Lpathomab in mice; format: in vivo
Method: Preliminary PK studies were conducted with Lpathomab. For IV dosed groups, mice were injected with a single 30 mg/kg dose and sacrificed at time points up to 15 days. Antibody was also given via i.p. administration and animals were sacrificed during the first 24 hrs to compare levels of mAb in the blood over this period of time for different routes of delivery. Pharmacokinetic parameters were assessed by WinNonlin. Three mice were sacrificed at each time point and plasma samples were collected and analyzed for mAb levels by ELISA.

IL-8 in Caki-1 cells = assay: LPA-induced IL-8 production in Caki-1 cells; format: cell-based, human; details: 18:1 LPA (0.2 mM), 0.1-30 μg/mL mAb, 24 h
Method: Three anti-LPA mAbs (B3, B7 and B58) were tested for their abilities to reduce in vitro IL-8 production compared to a non-specific antibody (NS). Caki-1 cells were seeded in 96 well plates and grown to confluency. After overnight serum starvation, cells were treated with 18:1 LPA (0.2 mM) with or without anti-LPA mAb B3, B7, B58 or NS (Non-Specific). After 24 h, cultured supernatants of renal cancer cells (Caki-1), treated with or without LPA and in presence of increasing concentrations of the anti-LPA mAbs B3, B7 and B58, were collected and analyzed for IL-8 levels using a commercially available ELISA kit (Human Quantikine Kit, R&D Systems, Minneapolis, Minn.). […] The inhibition of IL-8 release by the anti-LPA mAbs was also observed in other cancerous cell lines such as the pancreatic cell line Panc-1.

B1: LT3000: Murine anti-LPA monoclonal antibody clone B7, IgG1k, renamed Lpathomab, also known as LT3000; hybridoma 504B7.1, ATCC PTA-8420 (antibody, V domains shown)
VH: QVQLQQSGAELVRPGTSVKVSCKASGYGFINYLIEWIKQRPGQGLEWIGLINPGSDYTNYNENFKGKATLTADKSSSTAYMHLSSLTSEDSAVYFCARRFGYYGSGNYFDYWGQGTTLTVSS
VL: DVVMTQTPLSLPVSLGDQASISCTSGQSLVHINGNTYLHWYLQKPGQSPKLLIYKVSNLFSGVPDRFSGSGSGTDFTLKISRVEAEDLGVYFCSQSTHFPFTFGTGTKLEIK
With B1 the EC50 ([1]; 18:1 LPA 0.1 uM, mAb 0 to 0.4 ug/ml) was 0.274 nM, the “Max (OD450), 18:1 LPA” value ([1]; maximal binding) was 0.973 OD450 and the “MI, 14:0 LPA” value [2] was 61.3%. The “MI (%), S1P” value [3] was 2.7%, the Kd [4] was 0.001 to 0.05 nM and the “binding affinity for other bioactive lipids and proteins” value [5] was “no binding affinity”. For the same molecule, the “Migration, % Inhibition (over LPA taken as 100)” value (SKOV3 cell migration) was 35* %, the “LPA protection from death induced by chemotherapeutic agent (Taxol)” value (SKOV3 cells; LPA responsive cells, 24 h) was “blocked the ability of LPA to protect cells from death” and the “Apoptosis, % Induction (over LPA + TAXOL taken as 100)” value (SKOV3 cells; Lpathomab 150 μg/mL, 1 μM Taxol, 1 μM 18:1 LPA, n = 1) was 79%. For the same molecule, the Taxol-induced caspase activation (SKOV3 cells; SKOV3, serum-containing culture medium) was “enhanced”, the “microblood vessel density, Average” value ([6]; 2 mg/kg ip q2d) was 34 and the “Percent Inhibition” value ([6]; 2 mg/kg ip q2d) was 47.0%. The “microblood vessel density, Average” value ([6]; 8 mg/kg ip q2d) was 41.5, the “Percent Inhibition” value ([6]; 8 mg/kg ip q2d) was 35.4% and the “time until fully distributed to the blood” value ([7]; i.p. administration) was 6 to 12 h. The half-life ([7]; i.v. administration, listed as murine antibody) was roughly 96 h and the IL-8 expression (IL-8 in Caki-1 cells) was “significantly reduced in a dose-dependent manner”.
